# Test results taken from the FLAb antibody collection (doi:10.7554/elife.23156).
# B1: scFv; the commonest letter at each place (parent)
# chain 1: EVKLDETGGGLVQPGRPMKLSCVASGFTFSDYWMNWVRQSPEKGLEWVAQIRNKPYNYETYYSDSVKGRFTISRDDSKSSVYLQMNNLRVEDMGIYYCTGSYYGMDYWGQGTSVTVS
# chain 2: DVVMTQTPLSLPVSLGDQASISCRSSQSLVHSNGNTYLRWYLQKPGQSPKVLIYKVSNRFSGVPDRFSGSGSGTDFTLKISRVEAEDLGVYFCSQSTHVPWTFGGGTKLEIK
# Experiments:
# fluorescein = variants of: B1; experiment: Kd (Tite-Seq); details: with fluorescein; format: scFv 4-4-20, heavy + light
# [1] = variants of: B1; experiment: yeast surface expression (ratio to wild type); higher = more expressed; details: format: scFv 4-4-20, heavy + light
Variant,Kd (fluorescein) [µM],yeast surface expression [1]
chain 1 G104L D106G,≥ 10,0.169
chain 1 T28P W36P,≥ 10,0.295
chain 1 G100H W108D,≥ 10,0.321
chain 1 Y32T M34E,≥ 10,0.451
chain 1 F29C N35I,≥ 10,1.12
chain 1 Y102V G104N,≥ 10,0.817
chain 1 D106C W108H,≥ 10,0.583
chain 1 Y102V W108G,≥ 10,0.298
chain 1 F29Y Y32S,≥ 10,0.95
chain 1 S101N Y107M,≥ 10,0.616
chain 1 F29P V37W,≥ 10,0.685
chain 1 G100Q S101Q,≥ 10,0.263
chain 1 S30M M34P,≥ 10,2.67
chain 1 W108E G109T,≥ 10,0.269
chain 1 D31T V37S,≥ 10,0.269
chain 1 D31T V37D,≥ 10,0.511
chain 1 D106V W108N,≥ 10,0.371
chain 1 Y107V G109E,≥ 10,0.339
chain 1 S101D G109H,≥ 10,0.247
chain 1 Y32H N35D,≥ 10,0.772
chain 1 D106Q Y107I,≥ 10,0.712
chain 1 Y32R M34S,≥ 10,0.191
chain 1 T28W Y32W,≥ 10,0.65
chain 1 D31R Y32D,≥ 10,0.643
chain 1 G100Y Y107T,≥ 10,0.388

Variant,Kd (fluorescein) [µM],yeast surface expression [1]
chain 1 N35P W36T,≥ 10,0.338
chain 1 N35C V37K,≥ 10,0.542
chain 1 G100P M105S G109M,≥ 10,0.234
chain 1 F29Y N35H,≥ 10,0.732
chain 1 F29Y N35W,≥ 10,0.0981
chain 1 W33C M34C W36A,≥ 10,0.449
chain 1 F29D V37A,≥ 10,0.907
chain 1 D31M Y32V,≥ 10,0.528
chain 1 S101L M105L,≥ 10,0.334
chain 1 D31I W33D,≥ 10,0.632
chain 1 G100V G104F,≥ 10,0.472
chain 1 F29P D31I,≥ 10,0.679
chain 1 F29G S30K,≥ 10,1.04
chain 1 S30K Y32S M34V,≥ 10,0.837
chain 1 M105V W108A,≥ 10,0.434
chain 1 G104T G109D,≥ 10,0.235
chain 1 S101D M105T,≥ 10,0.799
chain 1 M34T W36Y,≥ 10,0.649
chain 1 G104C,≥ 10,0.578
chain 1 G104I,≥ 10,0.325
chain 1 M34L V37T,≥ 10,0.546
chain 1 F29H W33R,≥ 10,0.182
chain 1 S101H Y102R,≥ 10,0.96
chain 1 N35D,≥ 10,0.922
chain 1 N35H,≥ 10,0.793

Variant,Kd (fluorescein) [µM],yeast surface expression [1]
chain 1 N35V,≥ 10,0.596
chain 1 N35L,≥ 10,0.692
chain 1 F29S W33C,≥ 10,0.865
chain 1 S101W G104Y,≥ 10,0.203
chain 1 Y102P G104Y W108S,≥ 10,0.379
chain 1 G100D S101W,≥ 10,0.171
chain 1 Y103F G109F,≥ 10,0.237
chain 1 Y32N M34V,≥ 10,0.683
chain 1 M34W N35C,≥ 10,0.721
chain 1 N35L V37P,≥ 10,0.67
chain 1 S101F Y102A,≥ 10,0.623
chain 1 S30P D31A Y32H,≥ 10,0.725
chain 1 Y103Q G104N,≥ 10,0.905
chain 1 T28G F29R W36P,≥ 10,0.146
chain 1 Y32W M34W,≥ 10,0.838
chain 1 S101Y Y107P,≥ 10,0.489
chain 1 M34P W36N,≥ 10,0.506
chain 1 W33M M34I,≥ 10,0.708
chain 1 T28N D31I Y32R,≥ 10,0.627
chain 1 G100C D106G,≥ 10,0.553
chain 1 T28V W36H,≥ 10,0.619
chain 1 F29H W36D,≥ 10,0.486
chain 1 F29H W36Q,≥ 10,0.693
chain 1 W108E,≥ 10,0.463
chain 1 Y103D W108R,≥ 10,0.524

# More lines, main results first:
Kd (fluorescein) [µM],Variant,yeast surface expression [1]
0.00158,chain 1 S30Q D31H,0.881
≥ 10,chain 1 Y102L G104C,0.323
≥ 10,chain 1 Y102E G109K,0.317
≥ 10,chain 1 Y102E G109N,0.382
≥ 10,chain 1 M105A Y107M,0.661
0.0158,chain 1 Y103V,0.701
≥ 10,chain 1 S30Q W33S,0.902
≥ 10,chain 1 G100S G104W,0.425
≥ 10,chain 1 D31Y W33F V37H,0.788
≥ 10,chain 1 T28L W36A,0.508
≥ 10,chain 1 M105V G109Y,0.227
0.00422,chain 1 T28P W36Y,1.05
0.00444,chain 1 S30R M34C,0.668
5.66,chain 1 S30G M34H,0.659
2.23,chain 1 M34P V37Q,2.03
5.37,chain 1 M34G N35P,0.778
0.00325,chain 1 T28S,0.985
6.96,chain 1 T28K M34K,0.284
0.676,chain 1 D31Y M34K,0.834
2.47,chain 1 F29P Y32A,1.12

Kd (fluorescein) [µM],Variant,yeast surface expression [1]
6.61,chain 1 D31T V37W,0.726
0.000389,chain 1 M105C W108M,0.656
0.0125,chain 1 Y32F V37I,0.835
0.105,chain 1 S30R W33F M34V,0.767
0.00194,chain 1 D31M,0.58
0.00258,chain 1 D31Q,0.877
0.0692,chain 1 T28Y M34W,0.6
6.96,chain 1 Y102K Y107K,0.846
0.0353,chain 1 T28M M34C,0.719
0.676,chain 1 Y107I,0.995
7.72,chain 1 Y107D,0.779
0.11,chain 1 Y103A Y107T,1.13
2.88,chain 1 Y102W Y103W,0.645
0.216,chain 1 Y32E W36Q,0.493
0.00309,chain 1 T28I D31A,0.566
0.00326,chain 1 M34C,0.712
9.5,chain 1 M34R,0.851
0.0125,chain 1 Y102S Y103C,0.707
0.000939,chain 1 Y107L W108L,0.676
0.000399,chain 1 W108T,0.775
